We go through two molecules from patent US20200297818A1 (ZEALAND PHARMA A S, published 2020).

The target of experiment [1] is T1, human GLP-2 receptor (hGLP2-R) (human, UniProt O95838 1-553).
T1 sequence (looked up): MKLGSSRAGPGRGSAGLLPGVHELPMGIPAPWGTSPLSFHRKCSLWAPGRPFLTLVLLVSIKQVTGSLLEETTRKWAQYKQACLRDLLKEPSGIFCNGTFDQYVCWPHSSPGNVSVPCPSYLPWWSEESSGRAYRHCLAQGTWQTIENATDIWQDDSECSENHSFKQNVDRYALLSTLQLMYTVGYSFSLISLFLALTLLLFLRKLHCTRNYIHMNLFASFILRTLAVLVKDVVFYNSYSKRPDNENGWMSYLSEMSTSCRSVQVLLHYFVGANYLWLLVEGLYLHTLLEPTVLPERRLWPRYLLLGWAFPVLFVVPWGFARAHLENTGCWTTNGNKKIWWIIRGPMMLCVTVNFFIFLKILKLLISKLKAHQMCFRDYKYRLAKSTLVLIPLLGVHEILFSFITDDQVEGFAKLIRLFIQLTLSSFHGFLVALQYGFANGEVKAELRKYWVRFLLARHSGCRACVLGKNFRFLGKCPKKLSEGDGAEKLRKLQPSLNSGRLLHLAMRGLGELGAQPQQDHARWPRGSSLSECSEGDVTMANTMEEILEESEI
The experiment can be described thus: cell-based or functional assay.

Experiment [2] deals with human glucagon-like peptide 1 receptor (GLP-1 R) (human, UniProt P43220 24-463). In words: cell-based or functional assay.

Where a chain is given by its changes, count along the chain named.

B1: Compound 12 (peptide)
peptide: HXEGTFTSELATILDXLAARDFIAWLIEHKITD
HELM: PEPTIDE1{H.[Aib].E.G.T.F.T.S.E.L.A.T.I.L.D.K.L.A.A.R.D.F.I.A.W.L.I.E.H.K.I.T.D}|PEPTIDE2{[O=C(O)CCCCCCCCCCCCCCCCC(=O)[*:2]].[gGlu]}$PEPTIDE1,PEPTIDE2,16:R3-2:R2$$$V2.0
SMILES: CC[C@H](C)[C@H](NC(=O)[C@H](Cc1ccccc1)NC(=O)[C@H](CC(=O)O)NC(=O)[C@H](CCCNC(=N)N)NC(=O)[C@H](C)NC(=O)[C@H](C)NC(=O)[C@H](CC(C)C)NC(=O)[C@H](CCCCNC(=O)CC[C@H](NC(=O)CCCCCCCCCCCCCCCCC(=O)O)C(=O)O)NC(=O)[C@H](CC(=O)O)NC(=O)[C@H](CC(C)C)NC(=O)[C@@H](NC(=O)[C@@H](NC(=O)[C@H](C)NC(=O)[C@H](CC(C)C)NC(=O)[C@H](CCC(=O)O)NC(=O)[C@H](CO)NC(=O)[C@@H](NC(=O)[C@H](Cc1ccccc1)NC(=O)[C@@H](NC(=O)CNC(=O)[C@H](CCC(=O)O)NC(=O)C(C)(C)NC(=O)[C@@H](N)Cc1c[nH]cn1)[C@@H](C)O)[C@@H](C)O)[C@@H](C)O)[C@@H](C)CC)C(=O)N[C@@H](C)C(=O)N[C@@H](Cc1c[nH]c2ccccc12)C(=O)N[C@@H](CC(C)C)C(=O)N[C@H](C(=O)N[C@@H](CCC(=O)O)C(=O)N[C@@H](Cc1c[nH]cn1)C(=O)N[C@@H](CCCCN)C(=O)N[C@H](C(=O)N[C@H](C(=O)N[C@@H](CC(=O)O)C(=O)O)[C@@H](C)O)[C@@H](C)CC)[C@@H](C)CC
As to B1, in experiment [1], the “EC50 GLP-2 (nM); cAMP response” value stood at 0.11 nM. The “EC50 GLP-1 (nM); cAMP response” value in experiment [2] was found to be 0.14 nM.

B2: Compound 13 (peptide)
peptide: B1 peptide with T7S, E28A
HELM: PEPTIDE1{H.[Aib].E.G.T.F.S.S.E.L.A.T.I.L.D.K.L.A.A.R.D.F.I.A.W.L.I.A.H.K.I.T.D}|PEPTIDE2{[O=C(O)CCCCCCCCCCCCCCCCC(=O)[*:2]].[gGlu]}$PEPTIDE1,PEPTIDE2,16:R3-2:R2$$$V2.0
SMILES: CC[C@H](C)[C@H](NC(=O)[C@H](CC(C)C)NC(=O)[C@H](Cc1c[nH]c2ccccc12)NC(=O)[C@H](C)NC(=O)[C@@H](NC(=O)[C@H](Cc1ccccc1)NC(=O)[C@H](CC(=O)O)NC(=O)[C@H](CCCNC(=N)N)NC(=O)[C@H](C)NC(=O)[C@H](C)NC(=O)[C@H](CC(C)C)NC(=O)[C@H](CCCCNC(=O)CC[C@H](NC(=O)CCCCCCCCCCCCCCCCC(=O)O)C(=O)O)NC(=O)[C@H](CC(=O)O)NC(=O)[C@H](CC(C)C)NC(=O)[C@@H](NC(=O)[C@@H](NC(=O)[C@H](C)NC(=O)[C@H](CC(C)C)NC(=O)[C@H](CCC(=O)O)NC(=O)[C@H](CO)NC(=O)[C@H](CO)NC(=O)[C@H](Cc1ccccc1)NC(=O)[C@@H](NC(=O)CNC(=O)[C@H](CCC(=O)O)NC(=O)C(C)(C)NC(=O)[C@@H](N)Cc1c[nH]cn1)[C@@H](C)O)[C@@H](C)O)[C@@H](C)CC)[C@@H](C)CC)C(=O)N[C@@H](C)C(=O)N[C@@H](Cc1c[nH]cn1)C(=O)N[C@@H](CCCCN)C(=O)N[C@H](C(=O)N[C@H](C(=O)N[C@@H](CC(=O)O)C(=O)O)[C@@H](C)O)[C@@H](C)CC
For B2, in experiment [1], the “EC50 GLP-2 (nM); cAMP response” value came out at 0.099 nM. In experiment [2], the “EC50 GLP-1 (nM); cAMP response” value was determined as 2.2 nM.
